B1: C2 ScFv antibody: human anti-c-Met ScFv comprising SEQ ID NO:26; tested as phage-displayed clone (protein)
scFv: QVQLQESGGGLVQPGGSLRLSCAASGFTFSSYAMSWVRQAPGKGLEWVSAISGSGGSTYYADSVKGRFTISRDNSKNTLYLQMNSLRAEDTAVYYCASQHVGEQSRYFDYWGQGTLVTVSSGGGGGSGGGGSGGGGSDIVMTQSPSSLSASIGDRVTITCRASHSISSYVNWYQKKPGKAPNLLIYAASYLPRGVPSRFSGSGLGTDFTLTISNLQPEDFATYYCQESYSTPYSFGQGTKVDIKR
modifications: phage-displayed; synthetic C2 ScFv sequence
B2: E9 ScFv antibody: human anti-c-Met ScFv comprising SEQ ID NO:27; tested as phage-displayed clone (protein)
scFv: QVQLQESGGGVVQPGRSLRLSCAASGFTFSSYGMHWVRQAPGKGLEWVSAIGSSGGSTHDADTVKGRFTISRDNAKNSLYLQMNSLRAEDTAVYYCARDRARGFDYWGQGTLVTVSSGGGGGSGGGGSGGGGSEIVLTQSPSTLSASIGDRVTITCRASQGISSYLAWYQQKPGKAPKLLIYGASSLQSGVPSRFSGRGSGADFTLTISSLQPEDFATYYCQQLISYPLTFGGGTKVEIKR
modifications: phage-displayed; synthetic E9 ScFv sequence
B3: F1 ScFv antibody: human anti-c-Met ScFv comprising SEQ ID NO:28; tested as phage-displayed clone (protein)
scFv: QVQLVQSGAEVKKPGASVKVSCKASGYTFTDYYMHWVRQAPGEGLEWMGWMNPNSGGTNYAQKFQGRVTMTRDTSISTAYMELSRLRSDDTAVYYCARSHYWDSWSPGTLVTVSSGGGGGSGGGGSGGGGSSALTQPASVSGSPGQSITISCTGTSGDVGGYNYVSWYQQHPGKAPKLMIYDVSNRPSGVSNRFSGSKSGNTASLTISGLQAEDEADYYCTSYAGSRNLVFGGGTKLTVLG
modifications: phage-displayed; synthetic F1 ScFv sequence
B4: F11 ScFv antibody: human anti-c-Met ScFv comprising SEQ ID NO:29; tested as phage-displayed clone (protein)
scFv: QVQLQESGGGLLQPGGSLRLSCAASRFTFSNYAMSWVRQAPGKGLEWVSAISGSGASTYYADSVKGRFTISRDNSKNTLYLQMNSLRAEDTAVYYCSNLYGDYDYWGQGTLVTVSSGGGGGSGGGGSGGGGSQSVLTQPASVSGSPGQSITISCTGTSSDVGGYNYVSWYQQHPGKAPKLMIYDVSNRPSGVSNRFSGSKSGNTASLTISGLQAEDEADYYCSSYTSSSTLLFGGGTKLTVLG
modifications: phage-displayed; synthetic F11 ScFv sequence
B5: G1 ScFv antibody: human anti-c-Met ScFv comprising SEQ ID NO:30; tested as phage-displayed clone (protein)
scFv: QVQLQESGGGVVQPGGSLRLSCAASGFTFSSYSMNWVRQAPGKGLEWVSSISSSSSYIYYADSVKGRFTISRDNAKNSLYLQMNSLRAEDTAVYYCARDLPSDDYGDYDYYYYGMDVWGQGTTVTVSSGGGGGSGGGGSGGGGSQSVLTQPPSASGTPGQRVTLFCSGSSSNIASNSVKWYQQPPQRAPKLLMFSDDQRPSGVPVRFSASKSGTSASLAISGLQSEDEADYYCAAWDDSLNAEVFGGGTKVTVLG
modifications: phage-displayed; synthetic G1 ScFv sequence
B6: H5 ScFv antibody: human anti-c-Met ScFv comprising SEQ ID NO:32; tested as phage-displayed clone (protein)
scFv: QVQLQESGGGLVQPGGSLRLSCAASGFTFSNYAMSWVRQAPGKGLEWVSAISGSGGSTYYADSVKGRFTISRDNSKNTLYLQMNSLRAEDTAVYYCAKDRFRAAAYWGQGTLVTVSSGGGGGSGGGGSGGGGSQSVLTQPPSVSAAPGQKVTISCTGSSSNIGAGYDVHWYQQLPGTAPKLLIYGNSNRPSGVPDRFSGSKSGTSASLAISGLQSEDEADYYCAAWDDILNGEIFGGGTKVTVLG
modifications: phage-displayed; synthetic H5 ScFv sequence
B7: C2 ScFv antibody (phage-displayed) (scFv)
scFv: B1 scFv
notes: The fusion to the phage coat protein is not described
B8: E9 ScFv antibody (phage-displayed) (scFv)
scFv: B2 scFv
notes: as for B7
B9: F11 ScFv antibody (phage-displayed) (scFv)
scFv: B4 scFv
notes: as for B7
B10: G1 ScFv antibody (phage-displayed) (scFv)
scFv: B5 scFv
notes: as for B7
B11: H5 ScFv antibody (phage-displayed) (scFv)
scFv: B6 scFv
notes: as for B7

Each molecule was assayed against T1, cell surface MET (Homo sapiens, UniProt P08581) (assay: Phage flow cytometry for binding to c-MET expressing cells). Conditions: phage antibodies; Hcc827 or Hcc827-GR6 cells; FITC anti-M13 detection.
T1 construct: endogenous in cells; host or cells: Hcc827 or Hcc827-GR6
T1 sequence (P08581 25-1390): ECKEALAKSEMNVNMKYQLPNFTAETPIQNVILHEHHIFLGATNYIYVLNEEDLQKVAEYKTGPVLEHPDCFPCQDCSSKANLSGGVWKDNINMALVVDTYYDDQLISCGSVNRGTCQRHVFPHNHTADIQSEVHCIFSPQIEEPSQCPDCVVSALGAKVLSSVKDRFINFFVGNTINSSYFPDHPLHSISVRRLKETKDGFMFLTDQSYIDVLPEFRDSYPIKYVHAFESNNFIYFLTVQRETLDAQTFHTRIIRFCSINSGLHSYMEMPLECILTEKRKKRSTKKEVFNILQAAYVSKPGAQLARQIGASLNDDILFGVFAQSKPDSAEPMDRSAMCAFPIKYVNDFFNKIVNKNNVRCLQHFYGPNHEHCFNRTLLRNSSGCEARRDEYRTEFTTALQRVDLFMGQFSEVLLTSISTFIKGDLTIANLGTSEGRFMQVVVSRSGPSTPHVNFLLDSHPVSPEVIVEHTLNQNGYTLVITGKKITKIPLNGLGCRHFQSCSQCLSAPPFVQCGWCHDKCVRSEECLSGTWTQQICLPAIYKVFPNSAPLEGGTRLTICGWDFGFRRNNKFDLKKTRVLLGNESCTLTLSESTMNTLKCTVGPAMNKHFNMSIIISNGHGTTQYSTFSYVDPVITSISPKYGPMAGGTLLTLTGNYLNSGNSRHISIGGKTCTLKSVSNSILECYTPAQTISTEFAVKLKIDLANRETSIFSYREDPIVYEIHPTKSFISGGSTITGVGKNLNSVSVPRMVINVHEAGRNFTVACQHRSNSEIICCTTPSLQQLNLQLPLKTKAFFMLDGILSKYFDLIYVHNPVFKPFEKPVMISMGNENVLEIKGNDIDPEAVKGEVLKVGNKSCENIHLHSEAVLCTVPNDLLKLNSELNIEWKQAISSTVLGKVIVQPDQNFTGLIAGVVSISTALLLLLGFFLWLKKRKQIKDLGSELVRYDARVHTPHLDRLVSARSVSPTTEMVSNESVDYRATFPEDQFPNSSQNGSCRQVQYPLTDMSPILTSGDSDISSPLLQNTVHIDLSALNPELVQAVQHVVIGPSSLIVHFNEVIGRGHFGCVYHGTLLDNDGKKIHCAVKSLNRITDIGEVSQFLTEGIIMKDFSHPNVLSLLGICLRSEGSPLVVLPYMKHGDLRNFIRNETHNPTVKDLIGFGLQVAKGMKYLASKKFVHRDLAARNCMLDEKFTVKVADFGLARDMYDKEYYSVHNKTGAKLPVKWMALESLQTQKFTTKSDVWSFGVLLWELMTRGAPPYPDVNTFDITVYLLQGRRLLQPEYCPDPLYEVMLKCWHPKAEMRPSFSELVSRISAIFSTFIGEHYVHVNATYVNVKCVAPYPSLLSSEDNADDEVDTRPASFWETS
Experimental: (§1) For phage antibodies, flow cytometry was used to confirm their binding to c-MET expressing cells. Bacteria culture containing phage was concentrated 30 times into PBS according to published method (Antibody Engineering Methods and Protocols, Benny K. C. Lo). 2˜5×105 c-MET positive Hcc827 or Hcc827-GR6 cells (Engelman et. al, Science, 2007) were incubated with 100 ul concentrated phage and 30 ul 4% milk-PBS on ice for 1 hour. Cells were then washed using flow buffer (PBS, 1% FBS, 2 mM EDTA), and the binding phage antibodies were detected by FITC conjugated anti-M13 monoclonal antibody (Santa Cruz Biotechnology, Cat# sc-53005 Fitc).
93 clones were randomly picked after 3 rounds of panning. The phage-containing supernatant was used for phage ELISA. Top 64 clones with highest A405 signal were sequenced, among which 19 distinctive clones with different sequences were identified. These distinctive clones were then tested for binding to cell surface MET by phage flow experiments. 8 of these clones show good binding to cell surface MET and were selected for the subsequent purification and characterizations.

Row | Molecule | binding to cell surface MET
1 | B1 | can bind to cell surface MET
2 | B2 | can bind to cell surface MET
3 | B3 | can bind to cell surface MET
4 | B4 | can bind to cell surface MET
5 | B5 | can bind to cell surface MET
6 | B6 | can bind to cell surface MET

These molecules were tested against T2, c-MET on the surface of Hcc827 or Hcc827-GR6 cells (human, UniProt P08581 25-1390) (assay: phage flow cytometry on Hcc827-GR6 cells, bound phage detected with FITC anti-M13 antibody). Conditions: not given.
T2 construct: whole, on cells; The cells express the receptor endogenously, and MET is amplified in Hcc827-GR6; also called cell surface MET
T2 sequence (P08581 25-1390): as above
Experimental: as §1, with “$2 \sim 5 \times 10^5$” for “2˜5×105”

Row | Molecule | binding result
7 | B7 | binds
8 | B8 | binds
9 | B9 | binds
10 | B10 | binds
11 | B11 | binds

Source: US10407503B2, “Fully human antibodies and fragments recognizing human c-Met” (THE REGENTS OF THE UNIVERSITY OF CALIFORNIA, priority 2012, dated 2019)
